# Reference: the nanobody polyreactivity screen of Harvey et al. (2022)
# Test: yeast display, Sf9 membrane polyspecificity reagent, FACS + sequencing; frameworks hold sequencing errors
# How it was run: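 A nanobody's polyreactivity label depends on the gate it was sorted from. Yeast display cells were stained with 10% biotinylated, detergent-solubilized Sf9 membrane reagent for 1 hour at 4 °C, enriched on streptavidin microbeads and sorted by FACS. The low and high (top ~1%) gates were set on anti-HA fluorescence for expression and streptavidin fluorescence for reagent binding.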
row,Sequence,polyreactivity (PSR sort gate)
1,QVQLVESGGGLVPAGGSLRLSCAASGRISDLYAMGCYRQAPGKETEVVAGSTWRGGSTYYADSVKGRFTISRDNAKNTVYLQMNSLKPEDTAVYYCNAVWVQQVVGDGKRTWNFWYDYWGQGTQVTVSS,low polyreactivity
2,QVQLVESGGGLVQAGGSLRLSCADSGRTFSSYAMGWYRQAPGKERELVARISSSGGRTSYADSVKGRFTISRDNAKNTVYLQMNSLKPEDTAVYYCAKTYHWLYDYWGQGTQVTVSS,high polyreactivity
3,QVQLVESGGGLVQAGGSLRLSCAASGSIFGYYTMGWYRQAPGKERELVATITSGGSTYYADSVKGRFTISRDNAKNTDYLQMNSLKPEDTAVYYCNARTAQNVVLYDFGYWGQGTQVTVSS,high polyreactivity
4,QVQHVESGGGLVQAGGSLRLSCAASGSTFTAYVMGWYRQAPGKERELVAAISRSGGRTYYADSVKGRFTISRDNAKNTVYLQMNSLKPEDTAVYYCAARSGPLAYDYWGQGTQVTVSS,high polyreactivity
5,QVQLVESGGGLVQAGGSLRLRCAASGFIFIFNAMGWYRQAPGKERELLAAIDTSDDSTYYADSVKGRFTISRDNAKNTVYLQMNSLYPEDTAVYYCAAEELSNYEYWGQGTQVSVSS,low polyreactivity
6,QGQHVESGVGLVQAGGSLRLSCAASVFMFESNAMGWYRQAPGKERELVAAITSAGRTYYADSVKGRFTISRDNAKNTVYLQMNSLKPEETAVYYCNAPRSRYRYDYWGQGTQVTVSS,high polyreactivity
7,QVQLVESGGGLVQAGGSLRLSCAASGFTFSSNAMGWYRQAPGKERELVAVIDSGDITNYADSVKGRFTISRDYAKNTVYLQMNSLKPEDTAVYYCAADSYSYFTDDHGYWGQGTQVTVSS,high polyreactivity
8,QVQLVESGGGLVQAGGSLRLSCAASGFTFKWSAMGWYRPAPGKETELVATITIGGRTNYADSVKGRFTISRDNAKYTVYLQMNSLKPEDTAVYYGATYFVGFRLSDYDYWGQGTQVTVSS,low polyreactivity
9,QVQLVESGGGLVQAGGSLRLSCAASGRIFVGYAMGWYRQAPGKERELVATITGSGGRTYYADSVKGRFTISRDNAKNTVYLQMNSLKPEDTAVFYCATRPPLFYYDDHDDDDYWGQGTQVTVSS,low polyreactivity
10,QVQLVESGGGLVQAGGSLRLSCAASGSTFDIYVMGWYRQAPGKESELVAAISRVGNTSYADSVKGRFTISRDNAKNTVNLQMNSLKPEDTAVYYCAADAPSWYDRQYDYWGQCTQVTVSS,low polyreactivity
11,QDQLVQSGGGLVQAGGSLRLSCDASGSTLNWYAMGRYRQAPGKERELVAVITSSGVSTYYADSVKGRFTISRDNAKNTVYLQMNSLKPEDTAVYYCNAKWYRWQRGTVKYDYWGQGTQVTVSS,low polyreactivity
12,QVQLVESGGGLVQAGGSLRLSCAASGIISGEYAMGWYRQAPGKERELVAAIDYSGVSTYYADSVKGRFTISRDNAKNTVYLQMNSLKPEDTAVNYCAAYPSSEYDYWGQGTQVTVSS,low polyreactivity
13,QVQLVESGGGLVQAGGSLRLSCAASGSIFYLYAMGWYRQAPGKERELVAAITSGDSTTYADSVKGRFTISRDNAKNTVYLQMNSLKPEDTAVYYCAADWPGLVGYHNSAENDYWGQGTQVTVSS,low polyreactivity
14,QVQLVESRGGLVQAGGSLRLSCAASGRIFRYYAMGWYRQAPGKERELVAAITWRGGNTRYADSVKGRFTISRDNAKNTVYLPMNSLKTEDTAVYYCAARGQSAYSIWSYYYWGQGTQVTVSS,high polyreactivity
15,QVQLVESGGGLVQAGGSLRLSCAASGRTFYIYAMGWYRQAPGKERELVAAITRGGGSTSYADSVKGRFTISRDNAKNTVYLQMNSLKPEDTAVYYCAARYYFRWRRYDYWGQGTQVTVSS,high polyreactivity
16,QVQLVESGGGLVQAGGSLRLSCAASGSTFSRNASGWYRQAPGKERELVAAISRRGDTTYYADSVKGRFTISRDNAKNTVYLQMNSLKPEDTAVYYCNRLTIGSSSYDYWGQGTQVTVSS,high polyreactivity
17,QVQLVESGGGLVQAGGSLLLSSAASGSTLVYYTMGRYIPAPGKERELVAGITGSGGSTYYADSVKGRFTISRDNAKNTVYLQMNILIPEDTAVYYCAKRGFRSYHYIRGVYYWGQGTQVTVSS,low polyreactivity
18,QVHLVESGGGLVQAGGSLRLSCAASGLIIYRYAMGWYRQAPGKERELVAAITTNGARTYYADSVKGRFTISRDNAKNTVYLQMTSLIPEDTAVYYCAAYGAGKFWAEHNYWGLGTQVTVSS,high polyreactivity
19,QVQLVESGGGLVQAVGSLRLSCAASGRTFYRYAMGWYRQAPGKERELVASITRRGGNTYYADSVKGRFTISRDNAKNTVYLQMNSLKPEDTAVYYCAAQSLHPGNWGQGTQVTVSS,high polyreactivity
20,QVQLVESGGGLVQAGGSLRLSCAASGRIFSQYAMGWYRQAPGKEREFVASISRSGGRTYYADSVKGRFTISRDNAKNTVYLQMNSLKPEDTAVYYCAARAETRYYTYNYWGQGTQVTVSS,high polyreactivity
21,QVQLVESGGGLVQAGGSLRLSCAASGSIFSFYTMGWYRQAPGKERELVASSTTYADSVKGRFTISRDNAKNTVYLQMNSLKPEDTAVYYCAVDYNSLRYGPLGYWGQGTQVTVSS,low polyreactivity
22,QVQLVESGACLVQAGGSLRLSCAASGGIFYYYAMGWYRQAPGKERELVAVISPGGGRTYYADSVKGRFTISRDIAKNTVYLQKNSLKPEDTAVYYCARDSPGDGGREVARGSYNYWGQGTQVTVSS,high polyreactivity

row,Sequence,polyreactivity (PSR sort gate)
1,QVQHVESGGGLVQAGGSLRLSCAASGFTFQSYPMGWYRQAPGKERELVAAITRRGTRTYYADSVKGRFTISRDNAKNTVYLQLNSLKPEDTAVYYCAARSPKLEFDYWGQGTQVTVSS,high polyreactivity
2,QVQLVESGGGLVQAGGSLRLSCAASGSIFDYNPMGWYTQAPGKERELVADITSGGSTYYADSVKGRFTISRDNAKNTVYLQMNSLKPEDTAVYYCNADDAVEYSYGGGTEFYYWGQGTQVSVSS,low polyreactivity
3,QVQLVESGGGLVQAGGSLRLSCAASGRTFQDNAMVWYRQAPGKEREFVAAINNSGGNTYYADSVKGRFTISRDNAKNTVYLQMNSLKPEDTAVYYCNARHTWHQTYDYWGQGTQVTVSS,low polyreactivity
4,QVQLVESGGGLVQAGGSLRLSCAASGFTFSFYAMGCDRQAPGKERELVATISSGGSTTYADSVKGRFTISRDNANNTVYLHMNSLKPEDTAVYYCAARYGRVRNYRYDYWGKGTQVTVSS,high polyreactivity
5,QVQLVESGGGLVQAGGSLRLSCAASGRISFRYAMGWYRQAPGKERELVAAINRGGITNYADSVKGRFTISRDNAKNTVYLQMNSLKTEDTAVYYCAARYASPRYKSKMEYWGQGTQVTVSS,high polyreactivity
6,QVQRVESGGGLVQAGGSLRLSCAASGIIFDRYAMGWYRPAPGKERELVAAISSSGGSTYYADSVKGRFTISRDNAKNTVYLQMISLKPEATAVYYCNARHRQWARGYWGQGTQVTVSS,high polyreactivity
7,QVQLVESGGGLVQAGGSLRLSCAASGFIIVYYAMGWYRQAPGKERELVAAITSSGGSTYYADSVKGRFTISRDNAKNTVYLQMNSLKPEDTAVYYCNRVWYATDFVNTMGYWGQGTQGTVSS,low polyreactivity
8,QVQLVESGGGLVQAGGSLRLTCDASGSTFYIYAMGWYRQAPGKERELVARISGSCGSTYYADSVKGRFTISRDNAKNTVYLQMNSLKPEETAVYDCASDDIYKNYQYYAFPYYRYDYWGQGTQVTVSS,low polyreactivity
9,QVQLVESGGGLVQAGGSLRLSCAASGRIFWINAMGWYRQAPGKERELVAAISWRGDSTYYADSVKGRFTISRDNAKNTVYLQMNSLKPEDTAVYYCAAETRYLYDYWGQGSQVTVSS,high polyreactivity
10,QVQLVESGGGLVQAGGSLRLSCAASGSTLGGNAMGWYRQAPGKERELVAAITSSAGSTYYADSVKGRFTISRDNAKNTVYLQMNSLKPEDTAVYYCATSRDYIGYDYWGQGTQVTVSS,low polyreactivity
11,QVQLVESGGGLVQAGGSLRLSCAASGSTFKYNAMGWYRQAPGKERELVAAITRGGRTYYADSVKGRFTISRDNAKNTVYLQMNSLKPEDTAVYYCAAKWLGTAGDDYWGQGTQVTVSS,high polyreactivity
12,QVQLVESGGGLVKAGGSLRLSCAASGFIFLQYVMGSYRQAPVKERELVAAITSGGSTYYADSVKARFTISRDNAKNTVYLQMNSLKPEDTAVYFCATDVADNTFDALYGSDYWGQCTQVTVSS,low polyreactivity
13,QVQLVESGGGLVQAGGSLRLICAASGRYYAMGWYRQAPGKERELVAAISSGGSTNYADSVKGRFTISRDNAKNTVYLQMNSLKPEDTAVYYCAALIRQLRYYLYYYWGQGTQVTVSS,high polyreactivity
14,QVHLVESGGGLVQAGGCLRLSCAASGYIFKSYVMGWYRQAPGKERELVAAITWSGGSTYYADSVKGRFTMSRDNAKNTVYFQMNSLKPEDTAVYYCAAYPRRYRTTYDYWRQGTQVTVSS,high polyreactivity
15,QVQLVESGGGLVQAGGSLRLSCAASGRIFVTNAMGWYRQAPGKERELVAAISYRGGRTYYADSVKGRFTISRDNAKNTVYLQMNSLKPEDTAVYYCNAVTRGPFDYWGQGTQVTVSS,high polyreactivity
16,QVQLVESGGGLVQAGGRLRLSCAASGRTFSKYGMGGYRQAPGKEREFVAAISSSGDSTTYADSVKGRFTISRDNAKNAVYLQMNSLKPEDTAVSYCARQTSRYTGGERAYGYWGQGTQVTVSS,low polyreactivity
17,QVQLVESGGGLVQAGGSLRLSCAASGRTFSWYVMGWYRQAPGKERELVAAISWNGGRTYYADSVKGRFTISRDNAKNTVYLQMNSLKPEDTAVYYCNRDYYWRDGAKYIDDYWGQGTQVTVSS,high polyreactivity
18,QVQLVESGGGLVQAGGSLRLSCAASGRTFLWYAMGWYRQAPGKEREFVAAITSSGGDTYYADSVKGRFTISRDNAKNTVYLQMNSLKPADTAVYYCAARTRKWFDYAIHYYWGQGTQVTVSS,low polyreactivity
19,QVQLVESGGGLVHAGGSLRLSCAASGFTFLYNSMGWYRQAPGKERELVASINSGGSTNYADSVKGRFTISRDNAKNTVYLQMNSLKPEDTAVYYCNAKRHVRKGDYWGQGTQVTVSS,low polyreactivity
20,QVQLVESGGVLVQAGGSLRLTCAASGFTFSRNTMGWYRQAPGKERELVAAIDSTGGSTYYADSVKGRFTISRDNAKNTVYLQMNSLKPEDTAVYYCATVLPDGRVWYEGYYWGQGTQVTVSS,low polyreactivity
21,QVQLVESGGGLVQAGGSLRLSCAASGITFYRYMGWYRQAPGKERELVASITGRGGSTYYADSVKGRFTISRDNAKNTVYLQMNSLKPEDTAVYYCAAVFPTKSSTWYDYWGQGSQVTVSS,high polyreactivity
